The results in this text go back to publication PMC4755594, “Structure of a Bacterial Virus DNA-Injection Protein Complex Reveals a Decameric Assembly with a Constricted Molecular Channel” (PLoS ONE, 2016).

The term stoichiometry N denotes a count of units in the complex or per binding partner.

The data set deals with the molecule itself. Nature of the data set: SEC; refolded gp12 after Ni-NTA on Hiload Superdex 200; decamer peak at 54.6 ml, monomer peak at 73.6 ml; pooled decamer fractions run again. On the technique in general: SEC sorts molecules by how far they enter the pores of the column.

B1: bacteriophage Sf6 DNA-injection protein gp12 (natural protein, UniProt Q716G3 1-431, looked up)
chain: MATWQGSNGGLLAGIGGVNSNAPSVNDIGNTLQLIRQNNDIERSGANNVGLTALQGLSGIAGVFQQEKQARRQKEFQQAYANAYASGDRGALRQLATQYPDQIESVRKGMGFIDEDQRNSIGTLAAGARLAASSPEAMQSWLQNNANELARVGVDPNNVAQMYQQNPSGFGEFVDHLGMAALGPIDYFNVQDKMAGREIDRGRLAETIRSNKAGEALTVRGQDIQIRGQNISAQNAALSREIQRAELQEKALDRQIARESNQLKLEELKQKQADVRQKADIARADRQAAAQGAVDTFSTALDSLNEIEQSPGLSKAVGIRSAFPTVPGSDAANFEARLDTFKAQTFLPMVQSLKGMGALSDAEGKKLSDAVGALSPKMSEKAFRDSIGKIRNQLESKLSTVKKQFDYQEPVQNTPVQQPTTGSNFSSLWGD
notes: gp12 (product of gene 12) of bacteriophage Sf6, 431 residues, 46.5 kDa; ortholog of phage P22 gp20; The same preparation gave a monomer peak and a decamer peak on SEC; the assembled form has 10 copies of the chain; also called Sf6 gp12; gp12 monomer
As to B1, the “stoichiometry N” value is 10.
